According to PMC2192373:

Biological target: Taxol-stabilized microtubules prepared from pure bovine tubulin (bovine) (UniProt Q6B856)
Assay: co-sedimentation

Substance: GST-DmINCENP (full-length Drosophila inner centromere protein fused to GST) (natural protein)
- percent of the added protein that cosediments: 64%
